From the nanobody polyreactivity screen of Harvey et al. (2022)

Assay: yeast display, Sf9 membrane polyspecificity reagent, FACS + sequencing; frameworks hold sequencing errors
Outline: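 Galactose induction of a Saccharomyces cerevisiae BJ5465 synthetic nanobody display library ran 36–48 hours. The cells were then stained for 1 hour at 4 °C with 10% biotinylated, detergent-solubilized Sf9 membrane reagent, pulled down on streptavidin microbeads and FACS-sorted into low and high (top ~1%) gates on expression and reagent-binding fluorescence. Labels for polyreactivity follow the gate of origin.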

Sequence	polyreactivity (PSR sort gate)
QVQLVESGGGLVQAGGSLRLSCAASGITFYRNAMGWYRQAPGKEMELVAAITWNGGRTYYADSVKGRFTISRDNAKNTVYLQMNSLKPEDTAVYYCAADSGTRNLASYRYYYWGQGTQVTVSS	low polyreactivity
QVQLVESGGGLVQAGGSLRLSCAASGITFYRNAMGWYRQAPGKERELVAAITWNGGRTYYADSVKGRFTISRDYAKNTVYLQMNSLKPEDSAVYYCAKRYGSTQSRYVYWGQGTQVTVSS	high polyreactivity
QVQLVESGGGLVQAGGSLRLSCAASGITFYRYAMGWYRQAPGKDRELVAVISSGGSTNYADSVKGRFTISRDNAKNTVYLQMNSLKPEDTAVFYCNAVSTRFRVRTSDYWGQGTKVTVSS	high polyreactivity
QVQLVESGGGLVQAGGSLRLSCAASGITFYRYAMGWYRQAPGKERELVAAINSSGGNTYYADSVKGRFTISRDNAKNTVYLQMNSLKPEDTAVYYCAADRVSWVKHYYWGQGTQVTVSS	high polyreactivity
QVQLVESGGGLVQAGGSLRLSCAASGITFYRYAMGWYRQAPGKERELVAAISASDGSTYYADSVKGRFTISRDHAKNTVYLQMNSLKPEDTAVYYCNARKGYSYGHWGQGTQVTVSS	high polyreactivity
QVQLVESGGGLVQAGGSLRLSCAASGITFYRYAMGWYRQAPGKERELVAAISRSGGSTYYADSVKGRFTISRDNAKNTVYLQMNSLKPEDTAGYYCAAYILGNRDGYEYWGQGTQVTVSS	high polyreactivity
QVQLVESGGGLVQAGGSLRLSCAASGITFYSNAMGWYRQAPGKERELVATITRGGSTYYADSVKGRFTISRDNAKNTVYLQMNSLKPEDTAVYYCAADYSYRGREYGYWGQVTQVTVSS	low polyreactivity
QVQLVESGGGLVQAGGSLRLSCAASGITFYVYTMGWYRQAPGKERELVAAINGSGGSTNYADSVKGRFTISRDNAKNTVYLLMNSLKPEDTAVYYCAADWSLRLYDYWGQGTQVTVSS	low polyreactivity
QVQLVESGGGLVQAGGSLRLSCAASGITFYWNDMGWYRQATGKERELVAAIRRTAGSTYYADSVKGRFTISRDNAKNTVYLQMNSLKPEDTAVYYCAASRHFARHRGYYFRYDYWGQGTQVTVSS	high polyreactivity
QVQLVESGGGLVQAGGSLRLSCAASGITFYYYAMGWYRQAPGKERELVASISSVGTTYYADSVKGRFTISGDNAKNTFYLEMNSLKPVDTAVYYCAAVDYVRYYPDEFDYWGQGTQVTVSS	low polyreactivity
QVQLVESGGGLVQAGGSLRLSCAASGITFYYYAMGWYTQAPGKERELVAAISDNGSRTYYADSVKGRFTISRDNAQNTVYLQMNSLKPEDTAVYYCAAEGSYGYDYWGQGTQVTVSS	high polyreactivity
QVQLVESGGGLVQAGGSLRLSCAASGITIFGYAMGWYRQAPRTERELVAAINYSGDSTYYADSVKGRFTISRDNAKNTVYLQMNSLKPEDTAVYYCAADVRPYYSAYRGRYYYWGQGTQVTVSS	high polyreactivity
QVQLVESGGGLVQAGGSLRLSCAASGITIGSNVMGWYRQAPGKERELVAAISQSGGRTYYADSVKGRFTISRDNAKNTVYLQMNSLKPEYTAVYYCAKRQRSFYGRPMGDYWGQGTQVTVSS	high polyreactivity
QVQLVESGGGLVQAGGSLRLSCAASGITIKRYDMGWYRQAPGKEREFVATISQSGTSTYYADSVKGRFTISRDNAKNTVYLQMNSLKPEDTAVYYCAAYYIGYWYGYYSWGQGTQVTVSS	low polyreactivity
QVQLVESGGGLVQAGGSLRLSCAASGITIPYNAMGWYRQAPGKERELVAVISWSGGSTYYADSVKGRFTISRDNAKNTVYLQMNRQKPEDTAFYYCAAEPGGGYYYWGQGTKVTVSS	low polyreactivity
QVQLVESGGGLVQAGGSLRLSCAASGITIRLSALGGYRQAPGNERELVAAITSGGSTYADSVKGRFTISRDNAKNTVYLQMNSLKPEDTAVYYCNAEALVNGGYDYWGQGTQVTVSS	high polyreactivity
QVQLVESGGGLVQAGGSLRLSCAASGITIRRYAMGWYIQAPGKERELVAAITTGGGGTYYADSVKGRFTISRDNAKNTVYLQMNSLKPEDTAVYYCAATYWRTYPSYYWGQGTQVTVSS	high polyreactivity
QVQLVESGGGLVQAGGSLRLSCAASGITISVNDMGWYRQAPGKERELVAAISSGDSTNYADSVKGRFTISRDNAKNTVYLQMNSLKPEDTAVSYCAALEGSLTGWQTYDYWGQGTQVTVSS	low polyreactivity
QVQLVESGGGLVQAGGSLRLSCAASGITIVNYVMGWYRQPPGKERELVAAISIGGGTYYADSVKGRFTISRDNAKNTVYLQMNSLKPEDTAVYYWNASYGGLSFYIGVYDTGYDYWGQGTQVTVSS	low polyreactivity
QVQLVESGGGLVQAGGSLRLSCAASGITIWNNAMGWSRQAPGKESELVATISSNGGRTYYADSVKGRFTISRDNAKNTVYLQMNSLKPEDTAVYYCNAARRAYGYNYWGQGTQVTVSS	low polyreactivity
QVQLVESGGGLVQAGGSLRLSCAASGITLARNAMGWYRQAPGKERELVASITWSGGTTYYADSVKGRFTISRDNAKNTVYLQMNSLKPEDTAVYYCAASAKLHFYRTYRYNYWGQGTQVTVSS	high polyreactivity
QVQLVESGGGLVQAGGSLRLSCAASGITLAYNVMGWYRQAPGKERELVAGITRSGGSTYYADSVKGRFTISRDNAKNTVYLQMNSLKPEDTAVYYCAAGFTYLNYTPWYRFNYWGQGTQVTVSS	high polyreactivity

Sequence	polyreactivity (PSR sort gate)
QVQLVESGGGLVQAGGSLRLSCAASGITLDNYVMGWYRQAPGKERELVAAISRTSGRTYYADSVKGRFTISRDNAKNTVYLQMNSLKPEDTAVYYCAAETGYTIRYDYWGQGTQVTVSS	high polyreactivity
QVQLVESGGGLVQAGGSLRLSCAASGITLGTNAMGWYRQAPGKERELVAAIRRSGGSTYYADSVKGRFTISRDNAKNTVYLQMNSLKPEDTAVYYCAAVVSVNMYWGQGTQVTVSS	low polyreactivity
QVQLVESGGGLVQAGGSLRLSCAASGITLGTYAMGWSRQAPGKERELVAGISTSGGSTYYADSVKGPFTISRDNAKNTVYLQMNSLKPEETAVYYCAKRRYGSGYYRYRGYDYWGQGTQVTVSS	high polyreactivity
QVQLVESGGGLVQAGGSLRLSCAASGITLGYYVMGWYRQAPGKERELVAAISSSGGRTYYADSVKGRFTISRDTAKNTVYLQMNSLKPEDTAVYYCAADLGRGIYDYWGQGTQVTVSS	low polyreactivity
QVQLVESGGGLVQAGGSLRLSCAASGITLTNNAMGWSRHAPGKERELVAAITRSGGSTYYADSVKGRFTISRDNAKNTVYLLMNSLKPEVTAVYCAARWYSYSGSIRSYDYWGQGTQVTVSS	low polyreactivity
QVQLVESGGGLVQAGGSLRLSCAASGITLVYYVMGWYRQAPGKERELVAAISSGGITYYADSVKGRFTISRDNAKNTVYLQMNSLKPEDTAVYYCAAESRQYVRTYGYWGQGTQVTVSS	low polyreactivity
QVQLVESGGGLVQAGGSLRLSCAASGITLYDNAMGWYRQEPGKERELVAAINVNDVSTYYADSVKGRFTISRDNAKNTVYLQMNSLKPEDTAVYYCAADSLYYGIGYWVVRYDYWGQGTQVTVSS	low polyreactivity
QVQLVESGGGLVQAGGSLRLSCAASGITLYGYTMGWYRQAPGKERELVAGISRGGSTYYADSVKGRFTISRYNEKNTVFLQLNSLKPEDSEVYYCAAAGWYRGDYWGQGTQVTVSS	high polyreactivity
QVQLVESGGGLVQAGGSLRLSCAASGITSRRYAMGWYRKAPGKEREFVAAIRTICGSTYYADSVKGRFTISRDNAKNTVYLQMNSLKPEDTAVYYCAARYFLSRSGASHLDSWGQGTQVTVSS	high polyreactivity
QVQLVESGGGLVQAGGSLRLSCAASGITSWYYAMGWYRQAPGKERELVAAITSDGRTNYADSVKGRFTISRDNAKNTVYLQMNSLKPEDTAVYYCAAARRVGVSHYRYGYWGQGTQVTVSS	high polyreactivity
QVQLVESGGGLVQAGGSLRLSCAASGITVGDYAMGWYRQAPGKEREVVAAISYTGGSTYYADSVKGRFTISRDNAQNTGYLQMNSLKPEDTAVYYCAADGYRDYDSWGQGTQVTVSS	high polyreactivity
QVQLVESGGGLVQAGGSLRLSCAASGITVYLYAMGWYRQAPGKERELVAAISSSGGSTYYADSVKGRFTISRDNAKNTVYLQMNSLKPEDTAVYYCAAVYYTSVTIYDYWGQGTQVTVSS	high polyreactivity
QVQLVESGGGLVQAGGSLRLSCAASGITYCANTMGWYRQAPGKERELVADITVTGDGTYYADSVKGRFTISRDNAKNTVYLQMNSLKPEDTAVYYCAADFWLVSFQWDFEYDYWGQGTQVTVSS	low polyreactivity
QVQLVESGGGLVQAGGSLRLSCAASGITYPGYAMGWYRQAPGKERELVAVIRKSGTSTYYADSVKGRFTISRDNAKNTVYLQMNSLKPEDTAVYYCAAGGPSTLDDYWGQGTQVTVSS	low polyreactivity
QVQLVESGGGLVQAGGSLRLSCAASGITYSGNAMRWYRQAPAKERELVAAISGRGGSTYYADSVKGRFTISRDNAKNTVYLLMNSLKPDDTAVYYCNADVYPYKLALPAGMGYWGQGTQVTVSS	high polyreactivity
QVQLVESGGGLVQAGGSLRLSCAASGLIFADYTMGWYRQAPGKERELVAVITDGDSTYYADSVKGRFTISLDNAKNTVYLQMNTLKPEDTAVSYCAAESAGSFLDYYWAYGYWGQGTQVTVSS	low polyreactivity
QVQLVESGGGLVQAGGSLRLSCAASGLIFAGYAKGWYRQAPGKERELVAAISTSGGRTYYADSVKGRFTISRDNAKNTVYLQMNSLKPEDTAVYYCAAYPVHGKTQELAKEDYWGQGTQVTVSS	high polyreactivity
QVQLVESGGGLVQAGGSLRLSCAASGLIFAKYAMGWYRQAPGKERELVAAITSSGAGTYYADSVKGRFTISRDNAKNTVYLQMNCLKPEDTAVYYCATGPDPKYDYWGQGTQVTVSS	high polyreactivity
QVQLVESGGGLVQAGGSLRLSCAASGLIFAKYAMGWYRQAPGKERELVAGITSGGGTYYADSVKGRFTISRDNAKNTVYLQMNSLKPEDTAVYYCAVGREYFRWIRYDYDYWGQGTQVTVSS	low polyreactivity
QVQLVESGGGLVQAGGSLRLSCAASGLIFANNTMGWYRQAPGKERELVAAISATGDGNTYYADSVKGRFTISRDNAKNTVYLQMNSLKPEDTAVYYCNRLPQYALPYRHNGYWGQGTQVTVSS	low polyreactivity
QVQLVESGGGLVQAGGSLRLSCAASGLIFARNVMGWYRQAPGKERELVAAISWSSGSTYYADSVKGRFTISRDNAKNTVSLQMNTLKQEDTAVYYCAARKIKSSQYFPTLYYYWGQGTQVTVSS	high polyreactivity
